The values below come from patent US11904004B2, “Anti-CD277 antibodies” (INSTITUT NATIONAL DE LA SANTE ET DE LA RECHERCHE MEDICALE …, priority 2010, dated 2024).

One assay relates to monocytes. Nature of the assay: Costimulatory molecules expression on monocytes, flow cytometry. In kind it is cell-based, human. On the procedure: (§1) Blood samples were obtained from 5 healthy volunteers enrolled among the staff members, after informed consent. Monocytes were separated from peripheral blood mononuclear cells, and isolated using the MACS CD14 isolation kit (Miltenyi Biotech, Auburn, Calif. USA). Monocytes were cultured for 5 days with 200 ng/ml of recombinant human GM-CSF and 10 ng/ml recombinant human IL-4 (Schering-Plough Research Institute). These cells were termed immature dendritic cells (iDC). To achieve the stimulation, monocytes and iDC were cultured with 10 ng/ml of LPS, ligand for TLR4, 30 μg/ml of 8848 (Sigma-Aldrich, Milano, Italy), ligand for TLR7/8 and with […] of poly (I:C) (Sigma-Aldrich), ligand for TLR3, and were harvested after 48 h. The cells were cultured in RPMI 1640 supplemented with 10% heat-inactivated FCS, 5 mM L-glutamine and 50 IU/ml penicillin-streptomycin (from here on referred to as complete medium).
Monocytes and iDCs before and after stimulation were analysed by imunofluorescence flow cytometry (FACScalibur Becton Dickinson, Milano, Italy) to verify their activation state. To this end, mAb specific for CD80, CD86, HLA-DR, CD1a, CD14 (BD Becton Dickinson), BT3 (clone 20.1, IgG1) and BT3 Fab2 were previously selected, purified and characterised (Bensussan and Olive, 2005, Compte et al., 2004) or irrelevant molecules (anti-CD19, Becton Dickinson, and anti-CD31, clone Moon-1, provided by F. Malavasi, both IgG1) were used. All the available anti-BT3 mAbs are unable to discriminate among the three members of this family (BT3.1, BT3.2, or BT3.3), probably due to their high sequence homology (Compte et al., 2004, Bensussan and Olive, 2005). As further control, to block the possible effect of trace amounts of endotoxin, polymyxin B (10 μg/ml, Sigma-Aldrich) was added to the anti-BT3 mAb 20.1 before adding the cells.
A general note: A flow cytometer gives signals particle by particle.

The test system of the next assay is Vγ9Vδ2 T cells. Kind of assay: Flow cytometry of Vγ9Vδ2 T cells co-cultured with AML blasts (trogocytosis, CD107a, cytokines). It counts as cell-based, human. On the procedure:
2×10^5 PBMC were washed in PBS (Cambrex Bio Science) and incubated at 4° C. for 20 min with specified mAb. Following incubation and washing, samples were analyzed on LSRFORTESSA® or FACS CANTO® II (Becton Dickinson) using DIVA® software (BD bioscience, Mountain View, Calif.). For analysis of CD107 expression, γδ T cells were incubated at 37° C. in the presence of anti-CD107a and GOLGISTOP® with or without anti-BTN3A 20.1 mAb. After 4 hours, cells were collected, washed in PBS and analyzed by flow cytometry. To study cytokine production, cells were further permeabilized with PERMWASH® (BD bioscience) to allow intracellular staining with labeled antibodies. Trogocytosis of PKH67 (Sigma Aldrich) labeled blasts by γδ T cells was quantified as previously described^29.

Another assay has as its system primary AML blasts. Nature of the assay: Chromium release assay, lysis of primary AML blasts by NK cells. In kind it is cell-based, human. On the procedure: Effector γδ T cells were established and maintained as previously described^28. PBMC from HV were stimulated with ZOL (1 μm) and rhlL-2 (200 IU/ml) at Day 0. From Day 5, rhIL-2 was renewed every two days and cells were kept at 1.5×10^6/m1 for 15 days. NK cells were isolated using EASYSEP® Human NK cell enrichment kit (StemCell Technologies). The purity of γδ T cells and NK cells was determined by flow cytometry and respectively greater than 80% and 98%. The Burkitt lymphoma cell line, DAUDI, the human AML cell line, U937, and the erythroleukemic cell line, K562, were obtained from the American Type Culture Collection and cultured (0.5×10^6/ml) in RPMI 1640 medium with 10% FCS. […]
0.5×10^6 target cells were incubated with 50 pCi of ^51Cr (Perkin-Elmer) for AML blasts and 10 pCi for DAUDI and K562 cells for 90 minutes and mixed with effector cells in a Effector:Target (E:T) ratio of […]. After 4 hours of incubation at 37° C., 50p1 supernatant of each sample was transferred in LUMA® plates and radioactivity was determined by a gamma counter. The percentage of specific lysis was calculated using the formula [(experimental−spontaneous release/total−spontaneous release)×100] and expressed as the mean of triplicate.

A further assay concerns Vγ9/Vδ2 T cells. Nature of the assay: Cytolytic function, cytokine production and proliferation of Vγ9/Vδ2 T cells. In kind it is cell-based. The source says:
Typically the activation of the cytolytic function of Vγ9/Vδ2 T cells may be measured according to the method described in example 3 (i.e. “Analysis of Vγ9Vδ2 T cell responses by direct cytotoxicity assay”, and for example the results “CD277 potentiate the anti-tumor cytolysis mediated by Vγ9Vδ2 T cells”). Examples of isolated anti-CD277 antibodies, which activate the cytolytic function, cytokine production and proliferation of Vγ9/Vδ2 T cells, are mAbs 20.1 or 7.2, or derivatives thereof.
Target cells were labelled with 20 μCi of 51Cr (PerkinElmer) for 1 h at 37° C. After washing target cells were incubated with effectors Vγ9Vδ2 T cells for 4 h at 37° C. in different ratio. Incubations were performed in presence of specific or isotype control mAbs or Fab fragments. The radioactivity released by target cells was measured, 4 h later, on beta plate counter. The percentage of specific 51Cr lysis was calculated using the following equation: percent specific lysis=100×[(test release)−(spontaneous release)]/[(maximal release)−(spontaneous release)].

A further assay relates to iDC. Kind of assay: Costimulatory molecules expression on iDC, flow cytometry. In kind it is cell-based, human. The settings on record: coated mAb. On the procedure:
as §1
Monocytes and iDCs before and after stimulation were analysed by imunofluorescence flow cytometry (FACScalibur Becton Dickinson, Milano, Italy) to verify their activation state. […]

Where [1] appears, read: 4-hour co-culture with AML blasts.

B1: mAb 20.1: murine anti-CD277 antibody obtainable from the hybridoma CNCM I-4402; agonist (antibody, V domains shown)
VH: QVQLQQSGAELVKPGASVKLSCKASGYTFTRYYLYWVKQRPGQGLEWIGEINPNNGGTKFNEKFKSKATLTVDKSSRTTYIQLSSLTSEDSAVYYCSREDDYDGTPDAMDYWGQGTAVTVSS
VL: DIQMNQSPSSLSASLGDTITITCHASQNINLWLSWYQQRPGNIPKLLIYRASNLHTGVPSRFSGSGSATGFTLTISSLQPEDIATYYCQQGHSYPYTFGGGTKLDIK
Consider B1, for which the “CD80 and HLA-DR molecules at the monocyte surface” value with monocytes (coated mAb) is given as “up-regulation”. For the same molecule, in the assay on monocytes (coated mAb, 24 h stimulation), the “cell surface costimulatory molecule CD86 on monocytes” value is “up-regulation”. Further, the “activating effect in the presence of polymyxin B” value in the assay on monocytes (polymyxin B 10 μg/ml) is listed as “maintained”. Moreover, the “cellular activation with non-coated (soluble) mAb” value in the assay with monocytes (soluble mAb, no cross-linking, data not shown) is reported as “no effect”. In addition, in the assay with Vγ9Vδ2 T cells (setting [1]), the “cytokine production of IFNγ by Vγ9Vδ2 T cells” value is reported as “greater”, the “cytokine production of TNFα by Vγ9Vδ2 T cells” value is reported as “greater” and the “degranulation assessed by the expression of CD107a” value was “greater ability to degranulate”. Besides, the “trogocytosis of AML blasts by Vγ9Vδ2 T cells” value with Vγ9Vδ2 T cells (1 hour co-culture, vs IgG1) is reported as “significantly enhanced”. Besides, the “NK cells-mediated AML blasts lysis” value with primary AML blasts is “no effect”. Besides, the “cytolytic function, cytokine production and proliferation of Vγ9/Vδ2 T cells” value in the assay on Vγ9/Vδ2 T cells is “activate”. The “expression of CD80, CD86 and HLA-DR on iDC” value in the assay with iDC is on record as “increased expression”.
